Target: T1, human CD3 (human, UniProt P07766 23-207; P09693 23-182; P04234 22-171; P20963 22-164)
T1 construct: whole, on cells; SP34 is described as an anti-human CD3e antibody; also called human TCR/CD3 complex; CD3 on human pan-T cells
Assay: flow cytometry on human pan-T cells; MFI at 7.4 or 10 µg/ml relative to PR000260
Description: The flow cytometryFACS was used to analyse the binding of the CD3 antibody to CD3-expressing cells, where the CD3-expressing cells could be: CHOK1 cells overexpressing human CD3 or HEK 293 cells (plasmids encoding the ORF of γ, δ, ε, and ζ chains of human-derived CD3 and plasmids encoding the ORF of α and β chains of human TCR were co-transfected with host cells CHOK1 (ATCC, CCL-61) or HEK293 (ATCC, CRL-1573) to construct stable cell lines expressing the structure of the human TCR/CD3 complex); CHOK1 or HEK293 cells overexpressing cynomolgus monkey CD3; human pan-T cells (isolated with the human pan-T cell isolation kit (Miltenyi, #130-096-535) from PBMC); cynomolgus monkey pan-T cells. Specifically, the collected cells were washed twice with PBS containing 2% FBS (FACS buffer), and resuspended with FACS buffer, divided into 96 well plates with 1×10⁵ cells per well, centrifuged at 500 g for 5 minutes. The supernatant was discarded, and 100 μl of pre-gradient diluted CD3 antibody was added, then incubating for 1 hour at room temperature and washing twice with FACS buffer. The cells were resuspended with FACS buffer diluted with secondary antibody Alexa Fluor 488 AffiniPure Goat Anti-Human IgG, Fcγ fragment specific (Jackson ImmunoResearch, #109-545-098), then incubated at room temperature in the dark for 30 minutes. The cells were washed twice with FACS buffer, and resuspended with 200 μl FACS buffer. The fluorescent luminescence signal value were read by flow cytometry (BD FACS CANTOII or ACEA NovoCyte), and the resulted data were processed and analyzed by software FlowJo v10 (FlowJo, LLC). The software GraphPad Prism 8 was used for data processing and graphical analysis, and parameters such as binding curves and EC50 values can be obtained by four-parameter nonlinear fitting.
FIG. 7(A) to (G) show the binding ability of the CD3 antibodies obtained in the Example 4.2 (including PR000260 and its mutants) to human pan-T cells, respectively. The fluorescence intensity MFI of the CD3 antibody binding to human pan-T cells and the relative ratio relative to the initial antibody PR000260 were calculated when the antibody concentration was 7.4 or 10 μg/ml.

T1 sequence (P07766 23-207, chain 1 of 4): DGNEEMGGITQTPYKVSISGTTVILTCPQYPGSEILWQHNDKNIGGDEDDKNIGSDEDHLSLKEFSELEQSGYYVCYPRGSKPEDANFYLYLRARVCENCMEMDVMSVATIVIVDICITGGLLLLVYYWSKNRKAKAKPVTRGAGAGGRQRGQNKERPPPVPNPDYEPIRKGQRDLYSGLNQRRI
T1 sequence (P09693 23-182, chain 2 of 4): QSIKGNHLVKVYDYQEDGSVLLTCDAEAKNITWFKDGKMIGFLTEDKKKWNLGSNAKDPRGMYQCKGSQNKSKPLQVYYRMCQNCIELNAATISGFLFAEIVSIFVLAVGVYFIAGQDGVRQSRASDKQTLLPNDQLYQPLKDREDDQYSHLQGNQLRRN
T1 sequence (P04234 22-171, chain 3 of 4): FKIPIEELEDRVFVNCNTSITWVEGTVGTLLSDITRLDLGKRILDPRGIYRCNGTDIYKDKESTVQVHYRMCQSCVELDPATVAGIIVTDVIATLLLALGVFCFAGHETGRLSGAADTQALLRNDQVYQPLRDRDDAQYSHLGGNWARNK
T1 sequence (P20963 22-164, chain 4 of 4): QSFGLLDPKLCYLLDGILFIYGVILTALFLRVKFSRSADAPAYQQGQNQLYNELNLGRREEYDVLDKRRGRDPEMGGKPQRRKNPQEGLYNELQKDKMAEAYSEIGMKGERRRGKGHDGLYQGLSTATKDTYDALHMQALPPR

Row | Binder | binding result
1 | PR000511 (antibody, human IgG1, lambda, L234A L235A, V domains shown, humanized SP34 variant, IgG1 LALA; also called VH3231/VL7461 IgG) VH: EVQLLESGGGLVQPGGSLRLSCAASGFTFNTYAMNWVRQAPGKGLEWVSRIRSKYNNYATYYADSVKDRFTISRDDSKSTLYLQMNSLRAEDTAVYYCVRHGNFGNSYVSWFAYWGQGTLVTVSS VL: QAVVTQEPSLTVSPGGTVTLTCRSSTGAVTTSNYANWVQQKPGQAPRGLIGGTNKRAPWTPARFSGSLLGDKAALTLLGAQPEDEAEYFCALWYSNLWVFGGGTKLTVLG | binds
2 | PR000512 (antibody, human IgG1, lambda, L234A L235A, V domains shown, humanized SP34 variant, IgG1 LALA; also called VH3731/VL7461 IgG) VH: EVQLVESGGGLVQPGGSLKLSCAASGFTFNTYAMNWVRQASGKGLEWVGRIRSKYNNYATYYADSVKDRFTISRDDSKSTLYLQMNSLKTEDTAVYYCVRHGNFGNSYVSWFAYWGQGTLVTVSS VL: QAVVTQEPSLTVSPGGTVTLTCRSSTGAVTTSNYANWVQQKPGQAPRGLIGGTNKRAPWTPARFSGSLLGDKAALTLLGAQPEDEAEYFCALWYSNLWVFGGGTKLTVLG | binds
3 | PR001848 (antibody, human IgG1, lambda, L234A L235A, V domains shown, humanized SP34 variant, IgG1 LALAPG; also called VH3232/VL7461 IgG) VH: EVQLLESGGGLVQPGGSLRLSCAASGFTFSTYAMNWVRQAPGKGLEWVSRIRSKYNNYATYYADSVKDRFTISRDDSKSTLYLQMNSLRAEDTAVYYCVRHGNFGNSYVSWFAYWGQGTLVTVSS VL: QAVVTQEPSLTVSPGGTVTLTCRSSTGAVTTSNYANWVQQKPGQAPRGLIGGTNKRAPWTPARFSGSLLGDKAALTLLGAQPEDEAEYFCALWYSNLWVFGGGTKLTVLG | binds
4 | PR001849 (antibody, human IgG1, lambda, L234A L235A, V domains shown, humanized SP34 variant, IgG1 LALAPG; also called VH3732/VL7461 IgG) VH: EVQLVESGGGLVQPGGSLKLSCAASGFTFSTYAMNWVRQASGKGLEWVGRIRSKYNNYATYYADSVKDRFTISRDDSKSTLYLQMNSLKTEDTAVYYCVRHGNFGNSYVSWFAYWGQGTLVTVSS VL: QAVVTQEPSLTVSPGGTVTLTCRSSTGAVTTSNYANWVQQKPGQAPRGLIGGTNKRAPWTPARFSGSLLGDKAALTLLGAQPEDEAEYFCALWYSNLWVFGGGTKLTVLG | binds
5 | PR002469 (antibody, human IgG1, lambda, L234A L235A, V domains shown, humanized SP34 variant, IgG1 LALA; also called VH3230/VL7461 IgG) VH: EVQLLESGGGLVQPGGSLRLSCAASGFTFNTYAMNWVRQAPGKGLEWVSRIRSKYNNYATYYADSVKDRFTISRDNSKNTLYLQMNSLRAEDTAVYYCAKHGNFGNSYVSWFAYWGQGTLVTVSS VL: QAVVTQEPSLTVSPGGTVTLTCRSSTGAVTTSNYANWVQQKPGQAPRGLIGGTNKRAPWTPARFSGSLLGDKAALTLLGAQPEDEAEYFCALWYSNLWVFGGGTKLTVLG | binds
6 | PR002742 (antibody, human IgG1, lambda, L234A L235A, V domains shown, humanized SP34 variant, IgG1 LALA; also called VH3730/VL7461 IgG) VH: EVQLVESGGGLVQPGGSLKLSCAASGFTFNTYAMNWVRQASGKGLEWVGRIRSKYNNYATYYADSVKDRFTISRDDSKNTAYLQMNSLKTEDTAVYYCTRHGNFGNSYVSWFAYWGQGTLVTVSS VL: QAVVTQEPSLTVSPGGTVTLTCRSSTGAVTTSNYANWVQQKPGQAPRGLIGGTNKRAPWTPARFSGSLLGDKAALTLLGAQPEDEAEYFCALWYSNLWVFGGGTKLTVLG | binds
7 | PR002833 (antibody, human IgG1, lambda, L234A L235A, V domains shown, humanized SP34 variant, IgG1 LALAPG; also called VH3234/VL7461 IgG) VH: EVQLLESGGGLVQPGGSLRLSCAASGFTFSTYAMNWVRQAPGKGLEWVSRIRSKYNNYATYYADSVKDRFTISRDNSKNTLYLQMNSLRAEDTAVYYCVRHGNFGNSYVSWFAYWGQGTLVTVSS VL: QAVVTQEPSLTVSPGGTVTLTCRSSTGAVTTSNYANWVQQKPGQAPRGLIGGTNKRAPWTPARFSGSLLGDKAALTLLGAQPEDEAEYFCALWYSNLWVFGGGTKLTVLG | binds
8 | PR002834 (antibody, human IgG1, lambda, L234A L235A, V domains shown, humanized SP34 variant, IgG1 LALAPG; also called VH3235/VL7461 IgG) VH: EVQLLESGGGLVQPGGSLRLSCAASGFTFSTYAMNWVRQAPGKGLEWVSRIRSKYNNYATYYADSVKDRFTISRDDSKSTLYLQMNSLRAEDTAVYYCAKHGNFGNSYVSWFAYWGQGTLVTVSS VL: QAVVTQEPSLTVSPGGTVTLTCRSSTGAVTTSNYANWVQQKPGQAPRGLIGGTNKRAPWTPARFSGSLLGDKAALTLLGAQPEDEAEYFCALWYSNLWVFGGGTKLTVLG | binds
9 | PR002835 (antibody, human IgG1, lambda, L234A L235A, V domains shown, humanized SP34 variant, IgG1 LALAPG; also called VH3236/VL7461 IgG) VH: EVQLLESGGGLVQPGGSLRLSCAASGFTFSTYAMNWVRQAPGKGLEWVSRIRSKYNNYATYYADSVKDRFTISRDNSKSTLYLQMNSLRAEDTAVYYCARHGNFGNSYVSWFAYWGQGTLVTVSS VL: QAVVTQEPSLTVSPGGTVTLTCRSSTGAVTTSNYANWVQQKPGQAPRGLIGGTNKRAPWTPARFSGSLLGDKAALTLLGAQPEDEAEYFCALWYSNLWVFGGGTKLTVLG | binds
10 | PR002836 (antibody, human IgG1, lambda, L234A L235A, V domains shown, humanized SP34 variant, IgG1 LALAPG; also called VH3733/VL7461 IgG) VH: EVQLVESGGGLVQPGGSLKLSCAASGFTFSTYAMNWVRQASGKGLEWVGRIRSKYNNYATYYADSVKDRFTISRDDSKSTLYLQMNSLKTEDTAVYYCTRHGNFGNSYVSWFAYWGQGTLVTVSS VL: QAVVTQEPSLTVSPGGTVTLTCRSSTGAVTTSNYANWVQQKPGQAPRGLIGGTNKRAPWTPARFSGSLLGDKAALTLLGAQPEDEAEYFCALWYSNLWVFGGGTKLTVLG | binds
11 | PR002837 (antibody, human IgG1, lambda, L234A L235A, V domains shown, humanized SP34 variant, IgG1 LALAPG; also called VH3734/VL7461 IgG) VH: EVQLVESGGGLVQPGGSLKLSCAASGFTFSTYAMNWVRQASGKGLEWVGRIRSKYNNYATYYADSVKDRFTISRDDSKNTAYLQMNSLKTEDTAVYYCVRHGNFGNSYVSWFAYWGQGTLVTVSS VL: QAVVTQEPSLTVSPGGTVTLTCRSSTGAVTTSNYANWVQQKPGQAPRGLIGGTNKRAPWTPARFSGSLLGDKAALTLLGAQPEDEAEYFCALWYSNLWVFGGGTKLTVLG | binds
12 | PR003886 (antibody, human IgG1, lambda, L234A L235A, V domains shown, humanized SP34 variant, IgG1 LALA; also called VH3735/VL7461 IgG) VH: EVQLVESGGGLVQPGGSLKLSCAASGFTFSTYAMNWVRQASGKGLEWVGRIRSKYNNYATYYADSVKDRFTISRDDSKNTAYLQMNSLKTEDTAVYYCTRHGNFGNSYVSWFAYWGQGTLVTVSS VL: QAVVTQEPSLTVSPGGTVTLTCRSSTGAVTTSNYANWVQQKPGQAPRGLIGGTNKRAPWTPARFSGSLLGDKAALTLLGAQPEDEAEYFCALWYSNLWVFGGGTKLTVLG | binds
13 | PR004616 (antibody, human IgG1, lambda, L234A L235A, V domains shown, humanized SP34 variant, IgG1 LALA; also called VH3233/VL7461 IgG) VH: EVQLLESGGGLVQPGGSLRLSCAASGFTFSTYAMNWVRQAPGKGLEWVSRIRSKYNNYATYYADSVKDRFTISRDNSKNTLYLQMNSLRAEDTAVYYCAKHGNFGNSYVSWFAYWGQGTLVTVSS VL: QAVVTQEPSLTVSPGGTVTLTCRSSTGAVTTSNYANWVQQKPGQAPRGLIGGTNKRAPWTPARFSGSLLGDKAALTLLGAQPEDEAEYFCALWYSNLWVFGGGTKLTVLG | binds
14 | PR000513 (antibody, human IgG1, kappa, L234A L235A, V domains shown, humanized SP34 variant, IgG1 LALA; also called VH3231/VK1393 IgG) VH: EVQLLESGGGLVQPGGSLRLSCAASGFTFNTYAMNWVRQAPGKGLEWVSRIRSKYNNYATYYADSVKDRFTISRDDSKSTLYLQMNSLRAEDTAVYYCVRHGNFGNSYVSWFAYWGQGTLVTVSS VL: DAQMTQSPSSLSASVGDRVTITCRSSTGAVTTSNYANWVQQKPGKAPKGLIGGTNKRAPGVPSRFSGSLSGDDATLTISSLQPEDFATYFCALWYSNLWVFGGGTKVEIKR | binds
15 | PR000514 (antibody, human IgG1, kappa, L234A L235A, V domains shown, humanized SP34 variant, IgG1 LALA; also called VH3731/VK1393 IgG) VH: EVQLVESGGGLVQPGGSLKLSCAASGFTFNTYAMNWVRQASGKGLEWVGRIRSKYNNYATYYADSVKDRFTISRDDSKSTLYLQMNSLKTEDTAVYYCVRHGNFGNSYVSWFAYWGQGTLVTVSS VL: DAQMTQSPSSLSASVGDRVTITCRSSTGAVTTSNYANWVQQKPGKAPKGLIGGTNKRAPGVPSRFSGSLSGDDATLTISSLQPEDFATYFCALWYSNLWVFGGGTKVEIKR | binds
16 | PR002472 (antibody, human IgG1, kappa, L234A L235A, V domains shown, humanized SP34 variant, IgG1 LALA; very low expression yield; also called VH3230/VK1393 IgG) VH: EVQLLESGGGLVQPGGSLRLSCAASGFTFNTYAMNWVRQAPGKGLEWVSRIRSKYNNYATYYADSVKDRFTISRDNSKNTLYLQMNSLRAEDTAVYYCAKHGNFGNSYVSWFAYWGQGTLVTVSS VL: DAQMTQSPSSLSASVGDRVTITCRSSTGAVTTSNYANWVQQKPGKAPKGLIGGTNKRAPGVPSRFSGSLSGDDATLTISSLQPEDFATYFCALWYSNLWVFGGGTKVEIKR | binds
